# Target: coxsackievirus-adenovirus receptor (CAR) on 293 cells (human) (UniProt P78310)
# Assay: cell-based or functional assay
# Sequence of UniProt P78310 (P78310 20-365): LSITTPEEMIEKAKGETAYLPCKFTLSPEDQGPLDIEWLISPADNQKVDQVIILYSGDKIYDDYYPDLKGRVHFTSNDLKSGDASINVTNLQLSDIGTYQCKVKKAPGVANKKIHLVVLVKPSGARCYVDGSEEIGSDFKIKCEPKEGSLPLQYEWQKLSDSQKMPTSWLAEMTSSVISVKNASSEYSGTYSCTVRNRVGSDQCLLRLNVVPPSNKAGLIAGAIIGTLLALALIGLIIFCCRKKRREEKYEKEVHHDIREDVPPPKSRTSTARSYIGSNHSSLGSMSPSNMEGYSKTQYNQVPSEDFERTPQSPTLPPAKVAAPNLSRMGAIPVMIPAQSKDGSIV
Substance,IU/Particle (infectious units titrated on 293 cells per particle),inhibition of infection of 293 cells by 10 ug/ml recombinant Ad5 knob (FIG. 2)
Ad5 fiber Ala406Lys (virus Ad-LacZ/Fb-Ala406Lys) (from UniProt P11818 1-581),0.000125 IU/Particle,–
Ad5 fiber Lys506Gln/His508Lys (virus Ad-LacZ/Fb-Lys506Q/His508Lys) (from UniProt P11818 1-581),0.000769 IU/Particle,–
Ad5 fiber Ser408Glu (virus Ad-LacZ/Fb-S408E) (from UniProt P11818 1-581),9.54e-05 IU/Particle,–
Ad5 fiber Ser408Glu and Lys506Gln/His508Lys (virus Ad-LacZ/Fb-S408E/K506Q/H508K) (from UniProt P11818 1-581),0.00025 IU/Particle,–
Ad5 fiber Ser408Glu and Ser555Lys (virus Ad-LacZ/Fb-S408E/S555K) (from UniProt P11818 1-581),6.38e-05 IU/Particle,–
Ad5 fiber Ser408Glu and Val452Lys (virus Ad-LacZ/Fb-S408E/V452K) (from UniProt P11818 1-581),9.57e-05 IU/Particle,–
Ad5 fiber Ser555Lys (virus Ad-LacZ/Fb-Ser555Lys) (from UniProt P11818 1-581),0.025 IU/Particle,–
Ad5 fiber Thr404Gly (virus Ad-LacZ/Fb-Thr404gly) (from UniProt P11818 1-581),8.33e-05 IU/Particle,–
Ad5 fiber Val452Lys (virus Ad-LacZ/Fb-Val452Lys) (from UniProt P11818 1-581),0.002 IU/Particle,–
wild-type Ad5 fiber protein (as carried by the Ad-LacZ virus) (from UniProt P11818 1-581),0.025 IU/Particle,90%

# — patent US20060228334A1
